# Test results as given in patent publication US20240092889A1 (Chugai, published 2024).
# T1: recombinant human C1r2s2 tetramer (human, UniProt P09871 16-688; P00736 18-705)
# T1 construct: C1s and C1r co-expressed in HEK293/FreeStyle 293-F and purified from conditioned medium
# T1 chain 1: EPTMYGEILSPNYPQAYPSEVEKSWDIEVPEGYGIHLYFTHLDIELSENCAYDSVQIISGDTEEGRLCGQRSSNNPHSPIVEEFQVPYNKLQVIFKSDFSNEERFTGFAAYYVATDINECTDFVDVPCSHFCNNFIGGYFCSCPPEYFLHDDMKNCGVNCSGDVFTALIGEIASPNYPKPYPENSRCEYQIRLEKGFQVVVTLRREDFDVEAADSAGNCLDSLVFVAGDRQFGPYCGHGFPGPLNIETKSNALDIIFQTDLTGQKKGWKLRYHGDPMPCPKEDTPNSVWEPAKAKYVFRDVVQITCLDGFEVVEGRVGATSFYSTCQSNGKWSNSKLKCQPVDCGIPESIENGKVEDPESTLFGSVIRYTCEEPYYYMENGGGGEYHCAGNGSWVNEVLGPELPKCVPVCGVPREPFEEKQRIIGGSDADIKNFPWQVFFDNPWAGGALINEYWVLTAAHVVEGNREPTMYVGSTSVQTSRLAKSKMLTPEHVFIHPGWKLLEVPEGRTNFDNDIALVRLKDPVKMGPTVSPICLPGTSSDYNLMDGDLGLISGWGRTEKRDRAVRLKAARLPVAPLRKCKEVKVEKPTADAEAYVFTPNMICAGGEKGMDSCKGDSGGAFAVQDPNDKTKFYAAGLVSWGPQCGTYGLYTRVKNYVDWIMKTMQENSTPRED
# T1 chain 2: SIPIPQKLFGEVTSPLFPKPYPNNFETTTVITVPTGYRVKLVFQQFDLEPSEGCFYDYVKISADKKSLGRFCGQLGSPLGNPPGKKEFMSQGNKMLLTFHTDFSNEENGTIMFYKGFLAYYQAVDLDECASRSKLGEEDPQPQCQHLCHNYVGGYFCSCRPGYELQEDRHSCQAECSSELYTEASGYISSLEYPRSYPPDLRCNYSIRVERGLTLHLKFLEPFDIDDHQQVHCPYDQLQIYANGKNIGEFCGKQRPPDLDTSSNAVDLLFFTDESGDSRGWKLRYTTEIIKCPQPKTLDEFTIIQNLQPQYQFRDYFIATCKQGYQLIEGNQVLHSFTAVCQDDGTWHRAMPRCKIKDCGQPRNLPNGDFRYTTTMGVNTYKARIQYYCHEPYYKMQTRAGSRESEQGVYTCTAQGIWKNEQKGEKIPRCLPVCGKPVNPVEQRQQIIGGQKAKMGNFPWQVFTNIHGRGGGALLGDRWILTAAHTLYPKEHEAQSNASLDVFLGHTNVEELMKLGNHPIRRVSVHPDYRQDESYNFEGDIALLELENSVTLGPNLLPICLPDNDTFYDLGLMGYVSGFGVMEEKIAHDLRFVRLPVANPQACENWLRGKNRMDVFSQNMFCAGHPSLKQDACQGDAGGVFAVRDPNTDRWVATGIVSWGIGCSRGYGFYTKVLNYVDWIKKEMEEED
# Biological target: T1, recombinant human C1r2s2 tetramer
# Test: SPR (BIACORE), antibody captured by ProL, human C1r2s2 injected at 100 nM, pH 7.4, 37 C
# Method: Analysis of interaction between antibody variants and the human C1r2s2 prepared as mentioned above was carried out at pH7.4, at 37 degrees C. using BIACORE® T200 instrument (GE Healthcare) or BIACORE® 4000 (GE Healthcare). ProL (BioVision) was immobilized onto a CM4 sensorchip using amine coupling kit (GE Healthcare) according to the recommended settings by GE Healthcare. Antibodies and analytes were diluted into the respective running buffers, ACES pH7.4 (20 mM ACES (N-(2-Acetamido)-2-aminoethanesulfonic acid), 150 mM NaCl, 1.2 mM CaCl2, 1 mg/ml bovine serum albumin (BSA), 1 mg/ml CMD (CM-Dextran sodium salt), 0.05% Tween® 20 (polysorbate 20), 0.005 w/v % NaN3). Each antibody was captured onto the sensor surface by ProL. Antibody capture levels were aimed at 200 resonance units (RU). Then, recombinant human C1r2s2 was injected at concentrations of 25 and 100 nM followed by dissociation at pH7.4. The surface was regenerated using 10 mM Glycine-HCl, pH1.5.
row,Binder,binding result
1,"AL0451 (antibody, human IgG1, kappa, V domains shown, COS0637temp with VL C94A (Kabat), already in the VL entry) VH: QVQLVESGGGVVQPGRSLRLSCAASGFTFSAYAMNWIRQPPGKGLEWIGLIYGSGSTFYASWAKGRVTISVDTSKNQFSLKLSSVTAADTAVYYCARGRSVNYNSDFHLWGQGTLVTVSS VL: DIQMTQSPSSLSASVGDRVTITCQASQSLHDKKNLAWYQQKPGQPPKLLIYGASTLESGVPSRFSGSGSGTDFTLTISSLQPEDFATYYCQGEFSASSADCNTFGQGTKVEIKR",no binding (tested: 100 nM)
2,"AL0459 (antibody, human IgG1, kappa, V domains shown, COS0637temp with VL C94L (Kabat), already in the VL entry) VH: QVQLVESGGGVVQPGRSLRLSCAASGFTFSAYAMNWIRQPPGKGLEWIGLIYGSGSTFYASWAKGRVTISVDTSKNQFSLKLSSVTAADTAVYYCARGRSVNYNSDFHLWGQGTLVTVSS VL: DIQMTQSPSSLSASVGDRVTITCQASQSLHDKKNLAWYQQKPGQPPKLLIYGASTLESGVPSRFSGSGSGTDFTLTISSLQPEDFATYYCQGEFSLSSADCNTFGQGTKVEIKR",no binding (tested: 100 nM)
3,"AL0461 (antibody, human IgG1, kappa, V domains shown, COS0637temp with VL C94N (Kabat), already in the VL entry) VH: QVQLVESGGGVVQPGRSLRLSCAASGFTFSAYAMNWIRQPPGKGLEWIGLIYGSGSTFYASWAKGRVTISVDTSKNQFSLKLSSVTAADTAVYYCARGRSVNYNSDFHLWGQGTLVTVSS VL: DIQMTQSPSSLSASVGDRVTITCQASQSLHDKKNLAWYQQKPGQPPKLLIYGASTLESGVPSRFSGSGSGTDFTLTISSLQPEDFATYYCQGEFSNSSADCNTFGQGTKVEIKR",no binding (tested: 100 nM)
4,"AL0456 (antibody, human IgG1, kappa, V domains shown, COS0637temp with VL C94H (Kabat), already in the VL entry) VH: QVQLVESGGGVVQPGRSLRLSCAASGFTFSAYAMNWIRQPPGKGLEWIGLIYGSGSTFYASWAKGRVTISVDTSKNQFSLKLSSVTAADTAVYYCARGRSVNYNSDFHLWGQGTLVTVSS VL: DIQMTQSPSSLSASVGDRVTITCQASQSLHDKKNLAWYQQKPGQPPKLLIYGASTLESGVPSRFSGSGSGTDFTLTISSLQPEDFATYYCQGEFSHSSADCNTFGQGTKVEIKR",no binding (tested: 100 nM)
5,"AL0464 (antibody, human IgG1, kappa, V domains shown, COS0637temp with VL C94R (Kabat), already in the VL entry) VH: QVQLVESGGGVVQPGRSLRLSCAASGFTFSAYAMNWIRQPPGKGLEWIGLIYGSGSTFYASWAKGRVTISVDTSKNQFSLKLSSVTAADTAVYYCARGRSVNYNSDFHLWGQGTLVTVSS VL: DIQMTQSPSSLSASVGDRVTITCQASQSLHDKKNLAWYQQKPGQPPKLLIYGASTLESGVPSRFSGSGSGTDFTLTISSLQPEDFATYYCQGEFSRSSADCNTFGQGTKVEIKR",no binding (tested: 100 nM)
6,"AL0454 (antibody, human IgG1, kappa, V domains shown, COS0637temp with VL C94F (Kabat), already in the VL entry) VH: QVQLVESGGGVVQPGRSLRLSCAASGFTFSAYAMNWIRQPPGKGLEWIGLIYGSGSTFYASWAKGRVTISVDTSKNQFSLKLSSVTAADTAVYYCARGRSVNYNSDFHLWGQGTLVTVSS VL: DIQMTQSPSSLSASVGDRVTITCQASQSLHDKKNLAWYQQKPGQPPKLLIYGASTLESGVPSRFSGSGSGTDFTLTISSLQPEDFATYYCQGEFSFSSADCNTFGQGTKVEIKR",no binding (tested: 100 nM)
7,"AL0458 (antibody, human IgG1, kappa, V domains shown, COS0637temp with VL C94K (Kabat), already in the VL entry) VH: QVQLVESGGGVVQPGRSLRLSCAASGFTFSAYAMNWIRQPPGKGLEWIGLIYGSGSTFYASWAKGRVTISVDTSKNQFSLKLSSVTAADTAVYYCARGRSVNYNSDFHLWGQGTLVTVSS VL: DIQMTQSPSSLSASVGDRVTITCQASQSLHDKKNLAWYQQKPGQPPKLLIYGASTLESGVPSRFSGSGSGTDFTLTISSLQPEDFATYYCQGEFSKSSADCNTFGQGTKVEIKR",no binding (tested: 100 nM)
8,"AL0452 (antibody, human IgG1, kappa, V domains shown, COS0637temp with VL C94D (Kabat), already in the VL entry) VH: QVQLVESGGGVVQPGRSLRLSCAASGFTFSAYAMNWIRQPPGKGLEWIGLIYGSGSTFYASWAKGRVTISVDTSKNQFSLKLSSVTAADTAVYYCARGRSVNYNSDFHLWGQGTLVTVSS VL: DIQMTQSPSSLSASVGDRVTITCQASQSLHDKKNLAWYQQKPGQPPKLLIYGASTLESGVPSRFSGSGSGTDFTLTISSLQPEDFATYYCQGEFSDSSADCNTFGQGTKVEIKR",no binding (tested: 100 nM)
9,"AL0453 (antibody, human IgG1, kappa, V domains shown, COS0637temp with VL C94E (Kabat), already in the VL entry) VH: QVQLVESGGGVVQPGRSLRLSCAASGFTFSAYAMNWIRQPPGKGLEWIGLIYGSGSTFYASWAKGRVTISVDTSKNQFSLKLSSVTAADTAVYYCARGRSVNYNSDFHLWGQGTLVTVSS VL: DIQMTQSPSSLSASVGDRVTITCQASQSLHDKKNLAWYQQKPGQPPKLLIYGASTLESGVPSRFSGSGSGTDFTLTISSLQPEDFATYYCQGEFSESSADCNTFGQGTKVEIKR",no binding (tested: 100 nM)
10,"AL0463 (antibody, human IgG1, kappa, V domains shown, COS0637temp with VL C94Q (Kabat), already in the VL entry) VH: QVQLVESGGGVVQPGRSLRLSCAASGFTFSAYAMNWIRQPPGKGLEWIGLIYGSGSTFYASWAKGRVTISVDTSKNQFSLKLSSVTAADTAVYYCARGRSVNYNSDFHLWGQGTLVTVSS VL: DIQMTQSPSSLSASVGDRVTITCQASQSLHDKKNLAWYQQKPGQPPKLLIYGASTLESGVPSRFSGSGSGTDFTLTISSLQPEDFATYYCQGEFSQSSADCNTFGQGTKVEIKR",no binding (tested: 100 nM)
11,"AL0455 (antibody, human IgG1, kappa, V domains shown, COS0637temp with VL C94G (Kabat), already in the VL entry) VH: QVQLVESGGGVVQPGRSLRLSCAASGFTFSAYAMNWIRQPPGKGLEWIGLIYGSGSTFYASWAKGRVTISVDTSKNQFSLKLSSVTAADTAVYYCARGRSVNYNSDFHLWGQGTLVTVSS VL: DIQMTQSPSSLSASVGDRVTITCQASQSLHDKKNLAWYQQKPGQPPKLLIYGASTLESGVPSRFSGSGSGTDFTLTISSLQPEDFATYYCQGEFSGSSADCNTFGQGTKVEIKR",no binding (tested: 100 nM)
12,"AL0462 (antibody, human IgG1, kappa, V domains shown, COS0637temp with VL C94P (Kabat), already in the VL entry) VH: QVQLVESGGGVVQPGRSLRLSCAASGFTFSAYAMNWIRQPPGKGLEWIGLIYGSGSTFYASWAKGRVTISVDTSKNQFSLKLSSVTAADTAVYYCARGRSVNYNSDFHLWGQGTLVTVSS VL: DIQMTQSPSSLSASVGDRVTITCQASQSLHDKKNLAWYQQKPGQPPKLLIYGASTLESGVPSRFSGSGSGTDFTLTISSLQPEDFATYYCQGEFSPSSADCNTFGQGTKVEIKR",no binding (tested: 100 nM)
13,"AL0457 (antibody, human IgG1, kappa, V domains shown, COS0637temp with VL C94I (Kabat), already in the VL entry) VH: QVQLVESGGGVVQPGRSLRLSCAASGFTFSAYAMNWIRQPPGKGLEWIGLIYGSGSTFYASWAKGRVTISVDTSKNQFSLKLSSVTAADTAVYYCARGRSVNYNSDFHLWGQGTLVTVSS VL: DIQMTQSPSSLSASVGDRVTITCQASQSLHDKKNLAWYQQKPGQPPKLLIYGASTLESGVPSRFSGSGSGTDFTLTISSLQPEDFATYYCQGEFSISSADCNTFGQGTKVEIKR",no binding (tested: 100 nM)
14,"AL0460 (antibody, human IgG1, kappa, V domains shown, COS0637temp with VL C94M (Kabat), already in the VL entry) VH: QVQLVESGGGVVQPGRSLRLSCAASGFTFSAYAMNWIRQPPGKGLEWIGLIYGSGSTFYASWAKGRVTISVDTSKNQFSLKLSSVTAADTAVYYCARGRSVNYNSDFHLWGQGTLVTVSS VL: DIQMTQSPSSLSASVGDRVTITCQASQSLHDKKNLAWYQQKPGQPPKLLIYGASTLESGVPSRFSGSGSGTDFTLTISSLQPEDFATYYCQGEFSMSSADCNTFGQGTKVEIKR",no binding (tested: 100 nM)
